This note sets out measurements from patent US20240277831A1.

Assay [1] addresses Monomeric SARS-CoV-2 RBD (SARS-CoV-2) (UniProt P0DTC2).
Assay [2] has as its target RBD-12GS-I53-50A trimeric component (SARS-CoV-2).
For assay [3], the target named is RBD-16GS-I53-50A trimeric component (SARS-CoV-2).
Assay [4] deals with RBD-8GS-I53-50A trimeric component (SARS-CoV-2).

A word on the Kd: it is the equilibrium constant for the complex coming apart. The low end stands for a tighter complex, the high end for a looser complex. For orientation: koff means the rate constant with which the complex falls apart. Read a high koff as fast dissociation. For orientation: kon means a measure of how fast the partners come together. A higher kon goes with faster complex formation. For the substance CR3022 Fab, the Kd came to 45 nM in assay [1], 42 nM in assay [2], 56 nM in assay [3] and 57 nM in assay [4]. The koff in assay [1] was found to be 0.009 s⁻¹; in assay [2] it was 0.009 s⁻¹; in assay [3] it was 0.01 s⁻¹; in assay [4] it was 0.01 s⁻¹. Besides, the kon in assay [1], in assay [2], in assay [3] and in assay [4] was 200000 M⁻¹ s⁻¹ in each case.
